A short description of the data set: self-splicing fitness, log relative to wild type (ln ratio); higher = more splicing; Tetrahymena group I intron in knt gene, E. coli kanamycin selection, DiMSum; sequences stand for … in CUCUCU…GGAGGGAAAAGUUAUCAGGCAUGCACCUGGUAGCUAGUCUUUAAACCAAUAGAUUGCAUCGGUUUAAAAGGCAAGACCGUCAAAUUGCGGGAAAGGGGUCAACAGCCGUUCAGUACCAAGUCUCAGGGGAAACUUUGAGAUGGCCUUGCAAAGGGUAUGGUAAUAAGCUGACGGACAUGGUCCUAACCACGCAGCCAAGUCCUAAGUCAACAGAUCUUCUGUUGAUAUGGAUGCAGUUCACAGACUAAAUGUCGGUCGGGGAAGAUGUAUUCUUCUCAUAAGAUAUAGUCGGACCUCUCCUUAAUGGGAGCUAGCGGAUGAAGUGAUGCAACACUGGAGCCGCUGGGAACUAAUUUGUAUGCGAAAGUAUAUUGAUUAGUUUUGGAGUACUCGUGGUCG
The procedure, abridged:
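Colonies from six replicate transformations of E. coli BL21(DE3) were pooled and amplicon-sequenced on an Illumina HiSeq 2500. The library placed an intron with all eight P1ex-region nucleotides randomised inside the knt kanamycin-resistance gene on pET-22b(+), and cells grew overnight at 37°C or 30°C on LB agar with or without 25 μg/mL kanamycin (plus 100 μg/mL carbenicillin, 50 μM IPTG, 0.2% rhamnose). Fitness is the DiMSum error-weighted combination of wild-type-normalised replicate fold changes, kanamycin versus none.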

We go through 77 sequences from the supplement of paper PMC7877785.

± gives the uncertainty stated by the source.

Consider UCCAAGCAAUAUUACGUACC, for which the “self-splicing fitness (ln)” value (30 °C) is -2.68 ± 0.19 and the “self-splicing fitness (ln)” value (37 °C) is -2.18 ± 0.26. For UUGUAGCAAUAUUACGAGCC the same measures were -1.8 ± 0.27 and -1.78 ± 0.34.

Take CGUAAGCAAUAUUACGUGUA: the “self-splicing fitness (ln)” value runs as follows: (30 °C) -3.25 ± 0.22; (37 °C) -0.592 ± 0.13. Turning to AGUCAGCAAUAUUACGAACA, the “self-splicing fitness (ln)” value is, setting by setting: (30 °C) -0.843 ± 0.076; (37 °C) -0.406 ± 0.11. On the same counts, the results for GUUCAGCAAUAUUACGCGCU are -2.34 ± 0.18 and -1.13 ± 0.13. For CCUAAGCAAUAUUACGCCGA the same measures were -0.993 ± 0.49 and -1.98 ± 0.37. On to UUCUAGCAAUAUUACGGGUA, for which the “self-splicing fitness (ln)” value was -0.701 ± 0.18 (30 °C) and -0.842 ± 0.2 (37 °C). On the same counts, the results for GUGCAGCAAUAUUACGUACU are -2.7 ± 0.39 and -0.869 ± 0.38.

For CAUGAGCAAUAUUACGCCAU, the “self-splicing fitness (ln)” value (30 °C) was -3.43 ± 0.3. As for AACGAGCAAUAUUACGAAAU, the “self-splicing fitness (ln)” value reads like this: (30 °C) -3.74 ± 0.29; (37 °C) -2.26 ± 0.21. In the case of AUAUAGCAAUAUUACGUGUC, the “self-splicing fitness (ln)” value reads like this: (30 °C) -4.06 ± 0.34; (37 °C) -1.88 ± 0.32. Turning to UUGCAGCAAUAUUACGAGUC, the “self-splicing fitness (ln)” value runs as follows: (30 °C) -3.64 ± 0.2; (37 °C) -2.64 ± 0.28.

Take UCGCAGCAAUAUUACGUUCC: for the setting “30 °C”, the “self-splicing fitness (ln)” value was -2.7 ± 0.23. Regarding UCCUAGCAAUAUUACGCUUC, the “self-splicing fitness (ln)” value reads like this: (30 °C) -3.48 ± 0.18; (37 °C) -3.1 ± 0.23. On the same counts, the results for ACCAAGCAAUAUUACGGGCC are -2.26 ± 0.085 and -2.07 ± 0.096. For GCUAAGCAAUAUUACGAAGC the same measures were -3.24 ± 0.25 and -0.413 ± 0.23. On the same counts, the results for GGACAGCAAUAUUACGAAGA are -2.27 ± 0.22 and -0.517 ± 0.19. For the sequence CACGAGCAAUAUUACGACAG, the “self-splicing fitness (ln)” value by setting is: (30 °C) -1.71 ± 0.078; (37 °C) -0.496 ± 0.095.

Consider CUCUAGCAAUAUUACGAUAU, for which the “self-splicing fitness (ln)” value is, setting by setting: (30 °C) -3.45 ± 0.24; (37 °C) -3.2 ± 0.25. For the sequence AAAUAGCAAUAUUACGUCGC, the “self-splicing fitness (ln)” value runs as follows: (30 °C) -2.54 ± 0.15; (37 °C) -2.54 ± 0.28. On the same counts, the results for GGUAAGCAAUAUUACGGGGC are -3.8 ± 0.32 and -2.09 ± 0.31.

On to CAUGAGCAAUAUUACGUGCA, for which the “self-splicing fitness (ln)” value (30 °C) was -1.37 ± 0.15 and the “self-splicing fitness (ln)” value (37 °C) was -1.97 ± 0.24. Consider CUAUAGCAAUAUUACGCUAG, for which the “self-splicing fitness (ln)” value (30 °C) is -3.14 ± 0.41 and the “self-splicing fitness (ln)” value (37 °C) was -2.99 ± 0.47. On the same counts, the results for AAAUAGCAAUAUUACGCUUA are -1.47 ± 0.11 and -0.735 ± 0.13. Take ACGGAGCAAUAUUACGCGCA: the “self-splicing fitness (ln)” value reads like this: (30 °C) -1.39 ± 0.23; (37 °C) -1.64 ± 0.17. For ACCGAGCAAUAUUACGAUGG the same measures were -2.27 ± 0.094 and -1.39 ± 0.11. With AAGGAGCAAUAUUACGUAAC, the “self-splicing fitness (ln)” value is, setting by setting: (30 °C) -3.28 ± 0.25; (37 °C) -2.96 ± 0.43. On the same counts, the results for AUUCAGCAAUAUUACGGUUG are -2.89 ± 0.11 and -0.981 ± 0.11. With CGCGAGCAAUAUUACGUCUA, the “self-splicing fitness (ln)” value runs as follows: (30 °C) -1.42 ± 0.17; (37 °C) -0.973 ± 0.26.

As to UUCUAGCAAUAUUACGAGGC, the “self-splicing fitness (ln)” value (37 °C) was -2.11 ± 0.38.

CUACAGCAAUAUUACGGGGG: the “self-splicing fitness (ln)” value is, setting by setting: (30 °C) -3.39 ± 0.2; (37 °C) -2.26 ± 0.15. Regarding CUGCAGCAAUAUUACGCCCA, the “self-splicing fitness (ln)” value (37 °C) was -1.31 ± 0.49. In the case of AGGAAGCAAUAUUACGAUUC, the “self-splicing fitness (ln)” value runs as follows: (30 °C) -1.41 ± 0.15; (37 °C) -2.53 ± 0.18.

GACAAGCAAUAUUACGAGAA: the “self-splicing fitness (ln)” value is, setting by setting: (30 °C) -1.77 ± 0.3; (37 °C) -2.19 ± 0.22. On the same counts, the results for GCCAAGCAAUAUUACGAGAA are -2.69 ± 0.4 and -0.69 ± 0.35.

AGACAGCAAUAUUACGUGUC: the “self-splicing fitness (ln)” value was -3.93 ± 0.21 (30 °C) and -3.7 ± 0.2 (37 °C). Turning to GGACAGCAAUAUUACGUUAC, the “self-splicing fitness (ln)” value by setting is: (30 °C) -2.86 ± 0.2; (37 °C) -2.49 ± 0.26. Take GUAGAGCAAUAUUACGAGGA: the “self-splicing fitness (ln)” value (30 °C) is -2.61 ± 0.26. AAUGAGCAAUAUUACGCAUA: the “self-splicing fitness (ln)” value is -2.52 ± 0.19 (30 °C) and -2.42 ± 0.24 (37 °C). On the same counts, the results for ACAGAGCAAUAUUACGAACG are -2.76 ± 0.19 and -1.45 ± 0.28. For UCUGAGCAAUAUUACGGUGU the same measures were -2.79 ± 0.19 and -1.84 ± 0.28. On the same counts, the results for ACCUAGCAAUAUUACGCAUC are -1.83 ± 0.072 and -0.436 ± 0.078. For UCACAGCAAUAUUACGGCAC, the “self-splicing fitness (ln)” value is -2.93 ± 0.27 (30 °C) and -2.49 ± 0.31 (37 °C). On to AAUGAGCAAUAUUACGAUAC, for which the “self-splicing fitness (ln)” value (30 °C) was -4 ± 0.33.

Turning to CAAGAGCAAUAUUACGUUGU, the “self-splicing fitness (ln)” value by setting is: (30 °C) -5.35 ± 0.45; (37 °C) -2.26 ± 0.22. Regarding CUUGAGCAAUAUUACGUCCA, the “self-splicing fitness (ln)” value runs as follows: (30 °C) -3.91 ± 0.39; (37 °C) -2.55 ± 0.41. For GUUCAGCAAUAUUACGUCGG the same measures were -3.7 ± 0.21 and -2.39 ± 0.23. For GCUAAGCAAUAUUACGUGUU, the “self-splicing fitness (ln)” value (30 °C) was -1.78 ± 0.072 and the “self-splicing fitness (ln)” value (37 °C) was -0.774 ± 0.093. As for CAUCAGCAAUAUUACGGUUC, the “self-splicing fitness (ln)” value reads like this: (30 °C) -2.65 ± 0.14; (37 °C) -0.935 ± 0.13.

Turning to ACCAAGCAAUAUUACGACCC, the “self-splicing fitness (ln)” value is, setting by setting: (30 °C) -1.37 ± 0.096; (37 °C) -0.181 ± 0.15. For CACUAGCAAUAUUACGUCUU the same measures were -3.77 ± 0.3 and -2.75 ± 0.26.

Turning to UUAGAGCAAUAUUACGAUGU, the “self-splicing fitness (ln)” value is, setting by setting: (30 °C) -2.59 ± 0.41; (37 °C) -2.43 ± 0.41.

On to ACAAAGCAAUAUUACGAAAG, for which the “self-splicing fitness (ln)” value was -1.59 ± 0.12 (30 °C) and -1.32 ± 0.14 (37 °C).

Regarding CAUCAGCAAUAUUACGUCUU, the “self-splicing fitness (ln)” value (30 °C) is -3.53 ± 0.14 and the “self-splicing fitness (ln)” value (37 °C) is -2.19 ± 0.12. For CAUCAGCAAUAUUACGGUUU the same measures were -2.29 ± 0.079 and -0.832 ± 0.094.

As to CGGAAGCAAUAUUACGUGAG, the “self-splicing fitness (ln)” value runs as follows: (30 °C) -0.991 ± 0.058; (37 °C) -0.391 ± 0.085. On the same counts, the results for AGCUAGCAAUAUUACGGACU are 8.42e-05 ± 0.097 and 0.516 ± 0.12. On the same counts, the results for CACUAGCAAUAUUACGUCCA are -2.87 ± 0.22 and -1.31 ± 0.16. On the same counts, the results for CGUUAGCAAUAUUACGAACA are -0.595 ± 0.16 and 0.0081 ± 0.16. As to GGUCAGCAAUAUUACGGCGU, the “self-splicing fitness (ln)” value by setting is: (30 °C) 0.348 ± 0.11; (37 °C) 0.0889 ± 0.12. Consider AAUAAGCAAUAUUACGUAUA, for which the “self-splicing fitness (ln)” value is -1.76 ± 0.12 (30 °C) and -1.56 ± 0.13 (37 °C). On to UUGCAGCAAUAUUACGUUGC, for which the “self-splicing fitness (ln)” value is, setting by setting: (30 °C) -1.47 ± 0.1; (37 °C) -2.86 ± 0.21. Consider GUGCAGCAAUAUUACGUUGA, for which the “self-splicing fitness (ln)” value is -1.49 ± 0.13 (30 °C) and -0.806 ± 0.14 (37 °C). As for CCCAAGCAAUAUUACGCGCC, the “self-splicing fitness (ln)” value (37 °C) is -1.59 ± 0.34. For the sequence CAGGAGCAAUAUUACGGUAG, the “self-splicing fitness (ln)” value is -0.725 ± 0.12 (30 °C) and -0.902 ± 0.13 (37 °C). On the same counts, the results for CGAUAGCAAUAUUACGGUUC are -3.63 ± 0.27 and -1.96 ± 0.16.

In the case of CUUGAGCAAUAUUACGAGUG, the “self-splicing fitness (ln)” value is -1.72 ± 0.081 (30 °C) and -0.765 ± 0.093 (37 °C). Consider AUAGAGCAAUAUUACGCCCA, for which the “self-splicing fitness (ln)” value (30 °C) was -1.09 ± 0.29 and the “self-splicing fitness (ln)” value (37 °C) is -1.03 ± 0.48.

With CAACAGCAAUAUUACGGGGU, the “self-splicing fitness (ln)” value is -4.57 ± 0.23 (30 °C) and -2.79 ± 0.15 (37 °C). On the same counts, the results for UUUUAGCAAUAUUACGCAUA are -1.52 ± 0.27 and -0.671 ± 0.21. For CUUAAGCAAUAUUACGGGAC the same measures were -3.6 ± 0.28 and -1.26 ± 0.13.

Regarding GUUUAGCAAUAUUACGCCAC, the “self-splicing fitness (ln)” value (30 °C) is -1.72 ± 0.46.

Take AAAAAGCAAUAUUACGAACC: the “self-splicing fitness (ln)” value runs as follows: (30 °C) -1.53 ± 0.12; (37 °C) -0.312 ± 0.18. On the same counts, the results for CGCAAGCAAUAUUACGUUAU are -3.78 ± 0.24 and -2.44 ± 0.14.

In the case of UGUCAGCAAUAUUACGGUAU, the “self-splicing fitness (ln)” value is -2.46 ± 0.14 (30 °C) and -1.11 ± 0.12 (37 °C).

For UGUCAGCAAUAUUACGACUC, the “self-splicing fitness (ln)” value by setting is: (30 °C) -1.12 ± 0.14; (37 °C) 0.256 ± 0.16. For AGUCAGCAAUAUUACGUUUA the same measures were -2.23 ± 0.11 and -1.36 ± 0.099.
